Test results: publication PMC11370418

What was measured:
Experiment in all cases: …
[1] = target: MYB-GS-MYB synthetic AD (human)
[2] = target: DDIT3-GS-DDIT3 synthetic AD (human)
[3] = target: monomeric enhanced green fluorescent protein (meGFP)

Row | Substance | fold change of Kd against single-site MYB [1] | fold change of Kd against single-site DDIT3 [2] | Kd [3]
1 | P300 KIX domain (domain or fragment) | < 1.1 fold | < 1.1 fold | –
2 | TFIID domain TAF12 (from UniProt Q16514 1-161) (natural protein) | – | – | > 100 µM
